In article PMC9874840:

Target: human cyclophilin A (human) (UniProt P62937)
Assay: SPR

Chain of human cyclophilin A (human) (P62937 whole entry): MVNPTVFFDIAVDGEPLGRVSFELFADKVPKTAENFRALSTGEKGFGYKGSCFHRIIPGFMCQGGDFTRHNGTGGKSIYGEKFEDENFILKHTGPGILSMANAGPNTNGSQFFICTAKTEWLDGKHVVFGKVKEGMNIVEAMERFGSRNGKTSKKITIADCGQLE

Substance | Kd
SARS-CoV-2 RBD, Omicron variant (BA.1, B.1.1.529) (from UniProt P0DTC2) (domain or fragment) | 26.4 nM
SARS-CoV-2 RBD, Deltacron variant (AY.4/BA.1) (from UniProt P0DTC2) (domain or fragment) | 18.6 nM
